Measured values: patent publication USRE49847 (dated 2024)

T1: soluble CD22-Fc (R&D Systems) (UniProt P20273 20-687)
T1 construct: Bought reagent used to stain CD22 CARs; not shown: Fc part; detected with anti-human IgG Fc-gamma secondary
T1 sequence (looked up): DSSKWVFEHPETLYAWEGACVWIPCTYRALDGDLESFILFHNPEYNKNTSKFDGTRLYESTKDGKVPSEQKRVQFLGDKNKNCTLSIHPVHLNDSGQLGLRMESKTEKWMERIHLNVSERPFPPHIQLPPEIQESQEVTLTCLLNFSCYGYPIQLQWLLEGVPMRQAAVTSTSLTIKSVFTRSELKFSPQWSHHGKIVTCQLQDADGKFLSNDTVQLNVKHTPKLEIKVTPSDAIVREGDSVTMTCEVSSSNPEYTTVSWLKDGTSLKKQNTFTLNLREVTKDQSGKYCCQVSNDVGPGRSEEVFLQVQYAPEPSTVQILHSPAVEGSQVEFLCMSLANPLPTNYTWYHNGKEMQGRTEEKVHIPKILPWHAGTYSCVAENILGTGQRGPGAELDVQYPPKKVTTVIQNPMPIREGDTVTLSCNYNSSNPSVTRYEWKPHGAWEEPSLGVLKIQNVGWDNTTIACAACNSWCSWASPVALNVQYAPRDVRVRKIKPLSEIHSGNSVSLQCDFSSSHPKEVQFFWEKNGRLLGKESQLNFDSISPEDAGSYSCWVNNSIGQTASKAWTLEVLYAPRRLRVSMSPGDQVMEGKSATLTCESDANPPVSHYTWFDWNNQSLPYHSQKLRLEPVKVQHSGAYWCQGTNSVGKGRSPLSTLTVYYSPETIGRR

B1: tandem CD19/CD22 CAR construct 174 (other)
chain: EIVMTQSPATLSLSPGERATLSCRASQDISKYLNWYQQKPGQAPRLLIYHTSRLHSGIPARFSGSGSGTDYTLTISSLQPEDFAVYFCQQGNTLPYTFGQGTKLEIKGGGGSGGGGSGGGGSQVQLQESGPGLVKPSETLSLTCTVSGVSLPDYGVSWIRQPPGKGLEWIGVIWGSETTYYQSSLKSRVTISKDNSKNQVSLKLSSVTAADTAVYYCAKHYYYGGSYAMDYWGQGTLVTVSSGGGGSEVQLQQSGPGLVKPSQTLSLTCAISGDSMLSNSDTWNWIRQSPSRGLEWLGRTYHRSTWYDDYASSVRGRVSINVDTSKNQYSLQLNAVTPEDTGVYYCARVRLQDGNSWSDAFDVWGQGTMVTVSSGGGGSQSALTQPASASGSPGQSVTISCTGTSSDVGGYNYVSWYQQHPGKAPKLMIYDVSNRPSGVSNRFSGSKSGNTASLTISGLQAEDEADYYCSSYTSSSTLYVFGTGTQLTVLTTTPAPRPPTPAPTIASQPLSLRPEACRPAAGGAVHTRGLDFACDIYIWAPLAGTCGVLLLSLVITLYCKRGRKKLLYIFKQPFMRPVQTTQEEDGCSCRFPEEEEGGCELRVKFSRSADAPAYQQGQNQLYNELNLGRREEYDVLDKRRGRDPEMGGKPRRKNPQEGLYNELQKDKMAEAYSEIGMKGERRRGKGHDGLYQGLSTATKDTYDALHMQALPPR
notes: Distal anti-CD19 scFv, GGGGS, proximal anti-CD22 scFv H/L with short linker; leader 1-21 left out; also called CG#c174; c174
B2: tandem CD19/CD22 CAR construct 171 (other)
chain: EIVMTQSPATLSLSPGERATLSCRASQDISKYLNWYQQKPGQAPRLLIYHTSRLHSGIPARFSGSGSGTDYTLTISSLQPEDFAVYFCQQGNTLPYTFGQGTKLEIKGGGGSGGGGSGGGGSQVQLQESGPGLVKPSETLSLTCTVSGVSLPDYGVSWIRQPPGKGLEWIGVIWGSETTYYQSSLKSRVTISKDNSKNQVSLKLSSVTAADTAVYYCAKHYYYGGSYAMDYWGQGTLVTVSSLAEAAAKEVQLQQSGPGLVKPSQTLSLTCAISGDSMLSNSDTWNWIRQSPSRGLEWLGRTYHRSTWYDDYASSVRGRVSINVDTSKNQYSLQLNAVTPEDTGVYYCARVRLQDGNSWSDAFDVWGQGTMVTVSSGGGGSGGGGSGGGGSQSALTQPASASGSPGQSVTISCTGTSSDVGGYNYVSWYQQHPGKAPKLMIYDVSNRPSGVSNRFSGSKSGNTASLTISGLQAEDEADYYCSSYTSSSTLYVFGTGTQLTVLTTTPAPRPPTPAPTIASQPLSLRPEACRPAAGGAVHTRGLDFACDIYIWAPLAGTCGVLLLSLVITLYCKRGRKKLLYIFKQPFMRPVQTTQEEDGCSCRFPEEEEGGCELRVKFSRSADAPAYQQGQNQLYNELNLGRREEYDVLDKRRGRDPEMGGKPRRKNPQEGLYNELQKDKMAEAYSEIGMKGERRRGKGHDGLYQGLSTATKDTYDALHMQALPPR
notes: Distal anti-CD19 scFv, LAEAAAK, proximal anti-CD22 scFv H/L; also called CG#c171; c171
B3: control anti-CD22 CAR CAR22-65 (other)
chain: EVQLQQSGPGLVKPSQTLSLTCAISGDSMLSNSDTWNWIRQSPSRGLEWLGRTYHRSTWYDDYASSVRGRVSINVDTSKNQYSLQLNAVTPEDTGVYYCARVRLQDGNSWSDAFDVWGQGTMVTVSSGGGGSGGGGSGGGGSQSALTQPASASGSPGQSVTISCTGTSSDVGGYNYVSWYQQHPGKAPKLMIYDVSNRPSGVSNRFSGSKSGNTASLTISGLQAEDEADYYCSSYTSSSTLYVFGTGTQLTVL
notes: also called CAR22-65 Long; not shown: hinge, transmembrane, 4-1BB and CD3zeta parts of the CAR
B4: tandem CD22/CD19 CAR construct 181 (other)
chain: EVQLQQSGPGLVKPSQTLSLTCAISGDSMLSNSDTWNWIRQSPSRGLEWLGRTYHRSTWYDDYASSVRGRVSINVDTSKNQYSLQLNAVTPEDTGVYYCARVRLQDGNSWSDAFDVWGQGTMVTVSSGGGGSGGGGSGGGGSQSALTQPASASGSPGQSVTISCTGTSSDVGGYNYVSWYQQHPGKAPKLMIYDVSNRPSGVSNRFSGSKSGNTASLTISGLQAEDEADYYCSSYTSSSTLYVFGTGTQLTVLLAEAAAKEIVMTQSPATLSLSPGERATLSCRASQDISKYLNWYQQKPGQAPRLLIYHTSRLHSGIPARFSGSGSGTDYTLTISSLQPEDFAVYFCQQGNTLPYTFGQGTKLEIKGGGGSGGGGSGGGGSQVQLQESGPGLVKPSETLSLTCTVSGVSLPDYGVSWIRQPPGKGLEWIGVIWGSETTYYQSSLKSRVTISKDNSKNQVSLKLSSVTAADTAVYYCAKHYYYGGSYAMDYWGQGTLVTVSSTTTPAPRPPTPAPTIASQPLSLRPEACRPAAGGAVHTRGLDFACDIYIWAPLAGTCGVLLLSLVITLYCKRGRKKLLYIFKQPFMRPVQTTQEEDGCSCRFPEEEEGGCELRVKFSRSADAPAYQQGQNQLYNELNLGRREEYDVLDKRRGRDPEMGGKPRRKNPQEGLYNELQKDKMAEAYSEIGMKGERRRGKGHDGLYQGLSTATKDTYDALHMQALPPR
notes: Distal anti-CD22 scFv H/L, LAEAAAK, proximal anti-CD19 scFv; leader 1-21 left out; also called CG#c181; c181
B5: tandem CD22/CD19 CAR construct 182 (other)
chain: EVQLQQSGPGLVKPSQTLSLTCAISGDSMLSNSDTWNWIRQSPSRGLEWLGRTYHRSTWYDDYASSVRGRVSINVDTSKNQYSLQLNAVTPEDTGVYYCARVRLQDGNSWSDAFDVWGQGTMVTVSSGGGGSGGGGSGGGGSQSALTQPASASGSPGQSVTISCTGTSSDVGGYNYVSWYQQHPGKAPKLMIYDVSNRPSGVSNRFSGSKSGNTASLTISGLQAEDEADYYCSSYTSSSTLYVFGTGTQLTVLGGGGSEIVMTQSPATLSLSPGERATLSCRASQDISKYLNWYQQKPGQAPRLLIYHTSRLHSGIPARFSGSGSGTDYTLTISSLQPEDFAVYFCQQGNTLPYTFGQGTKLEIKGGGGSGGGGSGGGGSQVQLQESGPGLVKPSETLSLTCTVSGVSLPDYGVSWIRQPPGKGLEWIGVIWGSETTYYQSSLKSRVTISKDNSKNQVSLKLSSVTAADTAVYYCAKHYYYGGSYAMDYWGQGTLVTVSSTTTPAPRPPTPAPTIASQPLSLRPEACRPAAGGAVHTRGLDFACDIYIWAPLAGTCGVLLLSLVITLYCKRGRKKLLYIFKQPFMRPVQTTQEEDGCSCRFPEEEEGGCELRVKFSRSADAPAYQQGQNQLYNELNLGRREEYDVLDKRRGRDPEMGGKPRRKNPQEGLYNELQKDKMAEAYSEIGMKGERRRGKGHDGLYQGLSTATKDTYDALHMQALPPR
notes: Distal anti-CD22 scFv H/L, GGGGS, proximal anti-CD19 scFv; leader 1-21 left out; also called CG#c182; c182
B6: tandem CD19/CD22 CAR construct 173 (other)
chain: EIVMTQSPATLSLSPGERATLSCRASQDISKYLNWYQQKPGQAPRLLIYHTSRLHSGIPARFSGSGSGTDYTLTISSLQPEDFAVYFCQQGNTLPYTFGQGTKLEIKGGGGSGGGGSGGGGSQVQLQESGPGLVKPSETLSLTCTVSGVSLPDYGVSWIRQPPGKGLEWIGVIWGSETTYYQSSLKSRVTISKDNSKNQVSLKLSSVTAADTAVYYCAKHYYYGGSYAMDYWGQGTLVTVSSLAEAAAKEVQLQQSGPGLVKPSQTLSLTCAISGDSMLSNSDTWNWIRQSPSRGLEWLGRTYHRSTWYDDYASSVRGRVSINVDTSKNQYSLQLNAVTPEDTGVYYCARVRLQDGNSWSDAFDVWGQGTMVTVSSGGGGSQSALTQPASASGSPGQSVTISCTGTSSDVGGYNYVSWYQQHPGKAPKLMIYDVSNRPSGVSNRFSGSKSGNTASLTISGLQAEDEADYYCSSYTSSSTLYVFGTGTQLTVLTTTPAPRPPTPAPTIASQPLSLRPEACRPAAGGAVHTRGLDFACDIYIWAPLAGTCGVLLLSLVITLYCKRGRKKLLYIFKQPFMRPVQTTQEEDGCSCRFPEEEEGGCELRVKFSRSADAPAYQQGQNQLYNELNLGRREEYDVLDKRRGRDPEMGGKPRRKNPQEGLYNELQKDKMAEAYSEIGMKGERRRGKGHDGLYQGLSTATKDTYDALHMQALPPR
notes: Distal anti-CD19 scFv, LAEAAAK, proximal anti-CD22 scFv H/L with short linker; leader 1-21 left out; also called CG#c173; c173
B7: tandem CD22/CD19 CAR construct 183 (other)
chain: EVQLQQSGPGLVKPSQTLSLTCAISGDSMLSNSDTWNWIRQSPSRGLEWLGRTYHRSTWYDDYASSVRGRVSINVDTSKNQYSLQLNAVTPEDTGVYYCARVRLQDGNSWSDAFDVWGQGTMVTVSSGGGGSQSALTQPASASGSPGQSVTISCTGTSSDVGGYNYVSWYQQHPGKAPKLMIYDVSNRPSGVSNRFSGSKSGNTASLTISGLQAEDEADYYCSSYTSSSTLYVFGTGTQLTVLLAEAAAKEIVMTQSPATLSLSPGERATLSCRASQDISKYLNWYQQKPGQAPRLLIYHTSRLHSGIPARFSGSGSGTDYTLTISSLQPEDFAVYFCQQGNTLPYTFGQGTKLEIKGGGGSGGGGSGGGGSQVQLQESGPGLVKPSETLSLTCTVSGVSLPDYGVSWIRQPPGKGLEWIGVIWGSETTYYQSSLKSRVTISKDNSKNQVSLKLSSVTAADTAVYYCAKHYYYGGSYAMDYWGQGTLVTVSSTTTPAPRPPTPAPTIASQPLSLRPEACRPAAGGAVHTRGLDFACDIYIWAPLAGTCGVLLLSLVITLYCKRGRKKLLYIFKQPFMRPVQTTQEEDGCSCRFPEEEEGGCELRVKFSRSADAPAYQQGQNQLYNELNLGRREEYDVLDKRRGRDPEMGGKPRRKNPQEGLYNELQKDKMAEAYSEIGMKGERRRGKGHDGLYQGLSTATKDTYDALHMQALPPR
notes: Distal anti-CD22 scFv H/L short linker, LAEAAAK, proximal anti-CD19 scFv; leader 1-21 left out; also called CG#c183; c183
B8: tandem CD19/CD22 CAR construct 172 (other)
chain: EIVMTQSPATLSLSPGERATLSCRASQDISKYLNWYQQKPGQAPRLLIYHTSRLHSGIPARFSGSGSGTDYTLTISSLQPEDFAVYFCQQGNTLPYTFGQGTKLEIKGGGGSGGGGSGGGGSQVQLQESGPGLVKPSETLSLTCTVSGVSLPDYGVSWIRQPPGKGLEWIGVIWGSETTYYQSSLKSRVTISKDNSKNQVSLKLSSVTAADTAVYYCAKHYYYGGSYAMDYWGQGTLVTVSSGGGGSEVQLQQSGPGLVKPSQTLSLTCAISGDSMLSNSDTWNWIRQSPSRGLEWLGRTYHRSTWYDDYASSVRGRVSINVDTSKNQYSLQLNAVTPEDTGVYYCARVRLQDGNSWSDAFDVWGQGTMVTVSSGGGGSGGGGSGGGGSQSALTQPASASGSPGQSVTISCTGTSSDVGGYNYVSWYQQHPGKAPKLMIYDVSNRPSGVSNRFSGSKSGNTASLTISGLQAEDEADYYCSSYTSSSTLYVFGTGTQLTVLTTTPAPRPPTPAPTIASQPLSLRPEACRPAAGGAVHTRGLDFACDIYIWAPLAGTCGVLLLSLVITLYCKRGRKKLLYIFKQPFMRPVQTTQEEDGCSCRFPEEEEGGCELRVKFSRSADAPAYQQGQNQLYNELNLGRREEYDVLDKRRGRDPEMGGKPRRKNPQEGLYNELQKDKMAEAYSEIGMKGERRRGKGHDGLYQGLSTATKDTYDALHMQALPPR
notes: Distal anti-CD19 scFv, GGGGS, proximal anti-CD22 scFv H/L; leader 1-21 left out; end of range counted without it; also called CG#c172; c172

target: T1, soluble CD22-Fc (R&D Systems); experiment: FACS surface staining of transduced JNL cells with CD22-Fc

Binding result, binds:
B1
B2
B3
B4
B5
B6
B7
B8
